Measured values taken from publication doi:10.1101/2021.06.14.448436.

Molecular target: human angiotensin-converting enzyme 2 (human) (UniProt Q9BYF1)
Assay: SPR

Chain of UniProt Q9BYF1 (Q9BYF1 18-805): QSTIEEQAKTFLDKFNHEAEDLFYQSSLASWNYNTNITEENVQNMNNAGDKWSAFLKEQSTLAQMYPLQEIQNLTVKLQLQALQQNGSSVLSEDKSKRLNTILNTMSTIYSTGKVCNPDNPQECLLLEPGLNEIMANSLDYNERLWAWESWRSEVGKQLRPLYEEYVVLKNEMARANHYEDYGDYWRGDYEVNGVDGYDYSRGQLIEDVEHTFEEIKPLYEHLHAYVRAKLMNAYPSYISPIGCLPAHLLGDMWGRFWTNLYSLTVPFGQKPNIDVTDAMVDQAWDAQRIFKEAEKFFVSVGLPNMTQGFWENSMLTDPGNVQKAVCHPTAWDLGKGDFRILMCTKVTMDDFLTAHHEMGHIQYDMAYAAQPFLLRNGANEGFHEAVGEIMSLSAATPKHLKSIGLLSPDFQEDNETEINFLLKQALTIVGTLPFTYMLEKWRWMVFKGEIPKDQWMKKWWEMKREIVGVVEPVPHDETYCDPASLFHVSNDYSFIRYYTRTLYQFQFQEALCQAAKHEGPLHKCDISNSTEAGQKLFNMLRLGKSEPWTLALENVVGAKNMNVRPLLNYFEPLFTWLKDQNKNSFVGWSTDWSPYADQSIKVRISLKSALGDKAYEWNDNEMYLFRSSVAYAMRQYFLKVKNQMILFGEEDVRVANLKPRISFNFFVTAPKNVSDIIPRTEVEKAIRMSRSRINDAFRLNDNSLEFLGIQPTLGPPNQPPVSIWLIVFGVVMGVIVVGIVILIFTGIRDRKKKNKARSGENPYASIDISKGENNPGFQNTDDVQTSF

Substance: SARS-CoV-2 trimeric Spike protein, wild-type, prefusion-stabilised
- Kd: 6.4 nM
